For one molecule, Fold diff results are on record in US20220332804A1 (CSL INNOVATION, published 2022).

Common to all, as to assay: SPR, KD relative to WT C2;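 further: biacore SPR at 37 °C, anti-C2 mAbs captured via immobilised goat anti-human IgG, C2 alanine or serine surface mutants as analytes, 1:1 model fitted, double-referenced sensograms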
In general terms: In SPR one partner is held on a chip, and binding of the other changes the refractive index at the surface.

Experiment [1] deals with T1, human C2 E324A (human, UniProt P06681 21-752).
T1 sequence: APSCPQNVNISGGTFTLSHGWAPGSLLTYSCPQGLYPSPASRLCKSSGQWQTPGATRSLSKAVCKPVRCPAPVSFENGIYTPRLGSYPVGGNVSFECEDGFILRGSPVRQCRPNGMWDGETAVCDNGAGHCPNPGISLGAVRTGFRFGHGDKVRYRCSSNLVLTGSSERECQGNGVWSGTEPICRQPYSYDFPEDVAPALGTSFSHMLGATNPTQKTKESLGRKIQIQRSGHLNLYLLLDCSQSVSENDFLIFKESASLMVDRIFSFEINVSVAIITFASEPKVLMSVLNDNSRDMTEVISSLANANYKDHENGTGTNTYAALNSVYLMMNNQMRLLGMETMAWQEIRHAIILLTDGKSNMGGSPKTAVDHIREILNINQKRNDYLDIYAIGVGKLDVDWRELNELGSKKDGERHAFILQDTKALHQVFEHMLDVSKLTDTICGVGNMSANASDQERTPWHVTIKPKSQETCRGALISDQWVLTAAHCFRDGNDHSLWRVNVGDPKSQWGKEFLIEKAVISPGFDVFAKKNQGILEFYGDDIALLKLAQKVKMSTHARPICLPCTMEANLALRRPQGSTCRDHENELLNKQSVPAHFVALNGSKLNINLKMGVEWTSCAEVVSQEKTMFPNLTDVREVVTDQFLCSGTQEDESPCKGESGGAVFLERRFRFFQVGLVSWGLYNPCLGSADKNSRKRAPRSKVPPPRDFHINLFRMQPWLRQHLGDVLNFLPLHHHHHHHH

Experiment [2] addresses T2, human C2 M452A (human, UniProt P06681 21-752).
T2 sequence: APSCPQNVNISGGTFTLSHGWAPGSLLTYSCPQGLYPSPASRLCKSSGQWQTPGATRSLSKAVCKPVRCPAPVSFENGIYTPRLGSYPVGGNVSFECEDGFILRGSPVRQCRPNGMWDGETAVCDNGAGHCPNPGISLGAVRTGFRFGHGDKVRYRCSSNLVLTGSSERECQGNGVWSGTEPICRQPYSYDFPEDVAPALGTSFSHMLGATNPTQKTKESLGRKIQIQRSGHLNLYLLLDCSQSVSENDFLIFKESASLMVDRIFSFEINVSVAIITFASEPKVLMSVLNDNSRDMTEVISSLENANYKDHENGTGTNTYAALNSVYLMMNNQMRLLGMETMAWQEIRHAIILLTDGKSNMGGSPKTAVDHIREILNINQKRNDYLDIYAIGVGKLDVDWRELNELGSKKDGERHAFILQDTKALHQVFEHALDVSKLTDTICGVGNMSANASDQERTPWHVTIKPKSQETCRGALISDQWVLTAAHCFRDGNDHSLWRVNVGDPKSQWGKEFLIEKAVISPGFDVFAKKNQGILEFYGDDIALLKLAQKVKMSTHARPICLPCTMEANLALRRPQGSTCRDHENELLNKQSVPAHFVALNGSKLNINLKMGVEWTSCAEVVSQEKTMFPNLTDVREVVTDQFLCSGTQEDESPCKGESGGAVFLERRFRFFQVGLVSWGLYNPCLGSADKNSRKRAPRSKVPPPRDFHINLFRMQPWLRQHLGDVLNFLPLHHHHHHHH

Experiment [3] has as its target T3, human C2 N268A (human, UniProt P06681 21-752).
T3 sequence: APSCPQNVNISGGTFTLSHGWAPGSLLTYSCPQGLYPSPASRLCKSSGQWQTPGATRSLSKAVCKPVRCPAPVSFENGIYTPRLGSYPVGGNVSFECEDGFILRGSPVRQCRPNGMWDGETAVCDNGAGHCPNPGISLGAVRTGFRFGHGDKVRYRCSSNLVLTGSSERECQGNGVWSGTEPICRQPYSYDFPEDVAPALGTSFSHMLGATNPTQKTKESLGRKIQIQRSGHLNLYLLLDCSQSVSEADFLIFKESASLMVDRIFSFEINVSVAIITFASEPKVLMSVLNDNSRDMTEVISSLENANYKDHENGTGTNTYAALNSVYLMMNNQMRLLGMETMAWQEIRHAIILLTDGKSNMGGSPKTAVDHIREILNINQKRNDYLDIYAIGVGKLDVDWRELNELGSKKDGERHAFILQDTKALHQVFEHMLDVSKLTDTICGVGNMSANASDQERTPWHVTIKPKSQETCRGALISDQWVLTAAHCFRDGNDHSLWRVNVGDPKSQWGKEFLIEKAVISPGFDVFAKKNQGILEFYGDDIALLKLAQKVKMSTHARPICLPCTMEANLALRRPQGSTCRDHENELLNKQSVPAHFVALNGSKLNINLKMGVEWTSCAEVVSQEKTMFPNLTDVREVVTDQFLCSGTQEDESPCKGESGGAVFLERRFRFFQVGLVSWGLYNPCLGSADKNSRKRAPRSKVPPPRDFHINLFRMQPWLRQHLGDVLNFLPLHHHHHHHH

Experiment [4] has as its target T4, human C2 K550A (human, UniProt P06681 21-752).
T4 sequence: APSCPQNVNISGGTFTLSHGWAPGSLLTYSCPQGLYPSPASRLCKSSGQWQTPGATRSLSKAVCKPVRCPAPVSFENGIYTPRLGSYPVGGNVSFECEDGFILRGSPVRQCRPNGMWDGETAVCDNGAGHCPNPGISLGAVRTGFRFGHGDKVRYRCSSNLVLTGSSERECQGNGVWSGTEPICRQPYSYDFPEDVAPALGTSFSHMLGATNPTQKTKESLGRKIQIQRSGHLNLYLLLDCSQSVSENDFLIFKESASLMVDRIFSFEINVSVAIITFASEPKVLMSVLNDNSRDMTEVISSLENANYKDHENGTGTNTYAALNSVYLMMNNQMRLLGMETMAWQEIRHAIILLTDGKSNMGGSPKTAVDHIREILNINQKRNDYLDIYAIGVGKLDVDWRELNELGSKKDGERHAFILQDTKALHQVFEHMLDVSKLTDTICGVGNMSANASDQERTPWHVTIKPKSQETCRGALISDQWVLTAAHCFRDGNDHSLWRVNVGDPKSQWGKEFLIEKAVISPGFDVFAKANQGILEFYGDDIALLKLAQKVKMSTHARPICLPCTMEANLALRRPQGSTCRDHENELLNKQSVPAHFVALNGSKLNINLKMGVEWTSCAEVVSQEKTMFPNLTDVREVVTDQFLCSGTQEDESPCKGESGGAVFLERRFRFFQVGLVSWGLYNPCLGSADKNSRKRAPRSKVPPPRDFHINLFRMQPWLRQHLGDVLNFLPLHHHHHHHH

B1: RF16-226 (antibody, human IgG4 S228P, lambda)
heavy: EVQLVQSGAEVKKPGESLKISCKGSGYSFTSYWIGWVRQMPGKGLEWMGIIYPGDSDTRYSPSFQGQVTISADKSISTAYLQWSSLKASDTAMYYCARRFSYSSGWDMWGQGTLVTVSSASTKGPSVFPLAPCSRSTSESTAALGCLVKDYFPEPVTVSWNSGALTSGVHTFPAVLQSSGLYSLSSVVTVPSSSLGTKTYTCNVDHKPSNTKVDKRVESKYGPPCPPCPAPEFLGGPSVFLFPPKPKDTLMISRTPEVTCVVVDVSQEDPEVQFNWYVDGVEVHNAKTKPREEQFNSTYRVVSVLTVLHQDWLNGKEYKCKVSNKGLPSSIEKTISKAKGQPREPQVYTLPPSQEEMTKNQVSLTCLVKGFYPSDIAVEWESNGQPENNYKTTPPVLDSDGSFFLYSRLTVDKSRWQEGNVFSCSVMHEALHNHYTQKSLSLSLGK
light: SYELTQPPSVSVSPGQTARITCSGDALTSKYVAWYQQKSGLAPLLVIYEDTRRPSGIPAKFSGSSSGSVATLTISGAHGDDEADYYCYSTDASGHQRVFGGGTKLTVLSQPKAAPSVTLFPPSSEELQANKATLVCLISDFYPGAVTVAWKADGSPVKAGVETTKPSKQSNNKYAASSYLSLTPEQWKSHRSYSCQVTHEGSTVEKTVAPTECS
notes: pH-dependent anti-C2 antibody from a phage display library; also called WT
B1: the Fold diff in experiment [1] stood at 1 fold; in experiment [2], 0 fold; in experiment [3], 1 fold; in experiment [4] it was 1 fold.
